Experimental data published in patent US20210395345A1.

Key:
Experiment in all cases: cell-based or functional assay
[1] = target: SARS-CoV-2 spike protein with N439K (SARS-CoV-2) (UniProt P0DTC2)
[2] = target: SARS-CoV-2 spike protein with K444Q (SARS-CoV-2) (UniProt P0DTC2)
[3] = target: SARS-CoV-2 spike protein with V445A (SARS-CoV-2) (UniProt P0DTC2)
[4] = target: SARS-CoV-2 spike protein with K444T (SARS-CoV-2) (UniProt P0DTC2)
[5] = target: SARS-CoV-2 spike protein with K444N (SARS-CoV-2) (UniProt P0DTC2)

For mAb10987 (antibody), the reduced susceptibility (fold; neutralization assays using pseudotyped VSV) [1] was 463 fold, the reduced susceptibility (fold; neutralization) [2] was > 548 fold and the reduced susceptibility (fold; neutralization) [3] was 548 fold. The reduced susceptibility (fold; neutralization) [4] was > 1030 fold and the reduced susceptibility (fold; neutralization) [5] was > 755 fold.
